This note sets out measurements from IntAct's records for PubMed 19805280.

The labels stand for the following.
B1: Protein DOA1 (Saccharomyces cerevisiae), P36037 (parent)
chain: MGYQLSATLKGHDQDVRDVVAVDDSKVASVSRDGTVRLWSKDDQWLGTVVYTGQGFLNSVCYDSEKELLLFGGKDTMINGVPLFATSGEDPLYTLIGHQGNVCSLSFQDGVVISGSWDKTAKVWKEGSLVYNLQAHNASVWDAKVVSFSENKFLTASADKTIKLWQNDKVIKTFSGIHNDVVRHLAVVDDGHFISCSNDGLIKLVDMHTGDVLRTYEGHESFVYCIKLLPNGDIVSCGEDRTVRIWSKENGSLKQVITLPAISIWSVDCMSNGDIIVGSSDNLVRIFSQEKSRWASEDEINELSTQVEKSTISSKTIEFDESKLSPYEILQSPGRKEGQIVVVKSPQGTIEAHQFSNSSWKKVGDVVGAGATGNDKKIEFEGKTYDYVFDVDIEDGKPPLKLPINVSDNPYTAADNFLARYELPMSYRDQVVQFILKNTNGISLDQPNDNASSSAVSPSKTSVMKVLPVKQYLIMENYNPDTIFNGIVKINSNEKTFDDEILAQIGGALHDIDESWELLLSFANTIRSNWEIKTPAYDIVRLIVKKLPYSSDIKDYIEEGLGNKNITLTMLTVRILVNCFNNENWGVKLLESNQVYKSIFETIDTEFSQASAKQSQNLAIAVSTLIFNYSALVTKGNSDLELLPIVADAINTKYGPLEEYQECEEAAYRLTVAYGNLATVEPTLRQFANSVTWLANIKRSYGNVPRFKDIFDDLS

In one assay the parent is B1. The settings on record: with cdc48_yeast CDC48, P25694.
Chain of cdc48_yeast CDC48, P25694 (P25694 whole entry): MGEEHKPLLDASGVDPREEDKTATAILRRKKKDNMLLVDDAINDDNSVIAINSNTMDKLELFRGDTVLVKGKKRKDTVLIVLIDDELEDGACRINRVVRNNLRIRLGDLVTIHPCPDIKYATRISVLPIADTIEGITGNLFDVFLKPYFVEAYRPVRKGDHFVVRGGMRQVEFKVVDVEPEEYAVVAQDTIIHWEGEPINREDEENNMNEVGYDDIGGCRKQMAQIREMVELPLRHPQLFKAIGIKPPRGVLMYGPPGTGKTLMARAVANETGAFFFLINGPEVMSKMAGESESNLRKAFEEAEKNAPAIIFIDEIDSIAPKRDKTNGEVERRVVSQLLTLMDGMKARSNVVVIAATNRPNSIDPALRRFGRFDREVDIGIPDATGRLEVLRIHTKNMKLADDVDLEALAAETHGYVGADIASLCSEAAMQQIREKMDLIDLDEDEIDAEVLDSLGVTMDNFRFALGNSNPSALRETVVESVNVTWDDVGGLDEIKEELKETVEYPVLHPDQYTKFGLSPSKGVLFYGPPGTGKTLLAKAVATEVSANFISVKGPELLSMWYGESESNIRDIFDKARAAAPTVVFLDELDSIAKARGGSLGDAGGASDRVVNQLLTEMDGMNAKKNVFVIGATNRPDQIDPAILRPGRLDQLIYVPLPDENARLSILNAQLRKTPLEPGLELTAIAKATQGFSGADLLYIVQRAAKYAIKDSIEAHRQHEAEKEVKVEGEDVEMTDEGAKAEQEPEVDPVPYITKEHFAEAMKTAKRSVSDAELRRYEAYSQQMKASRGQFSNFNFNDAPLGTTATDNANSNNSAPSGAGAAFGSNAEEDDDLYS
As to R541A;R669A, the “effect of a mutation on the interaction” value is “disrupting interaction”.

The variants in another assay derive from B1. The settings on record: with cdc48_yeast CDC48, P25694. The source holds these as a separate data set.
Regarding N578A, the “effect of a mutation on the interaction” value is reported as “decreasing interaction”.
The same measure, in the same setting: with R541A the entry was “disrupting interaction”; with R669A, “decreasing interaction”.
